# Reference: patent US20240026407A1, “MODIFICATION OF SAPONINS” (GLAXOSMITHKLINE BIOLOGICALS SA, priority 2020, published 2024)
# B1: 810 (protein, listed as Cutibacterium avidum)
# chain: MTPAEITDLISQLTLEEKASLCSGGDSWHLQTVEKLGIPGPMVTDGPHGLRKVADGSMAGIYDSVPATCFPTAAGLASTWDPELVHDIGVALGEETRAESVSVLLGPGINMKRSPLCGRNFEYFSEDPVLAGTLATELVRGIQSQGVGTSLKHFAANNQETDRLRVNAEIDERTLREIYLPAFEMVVKQADPWTVMCSYNAINGVYSSQNRWLLTELLHEEWGYKGLVISDWGAVVNRVEGLRAGLDLEMPGDAPRNDARIVEAVRSGDLDEEILDTAVARILSLIARASAAMADPGSYDIEAHHQLARRAAAASVVLLKNDGDVLPLIDPDDVVVIGEFARTPRYQGAGSSKVNPTRVDTALDSLRQTWDDVPFAPGFTLTDHPDPQLADEAVSLSRGKTAVLFLGLPAVAESEGYDRTNTDLPTDQIDLLARVRKVASHTIVVLSNGSSVGTAEWDDQADAIVECWLGGQASGSGVIDVLTGKVNPSGHLAETITRKLSDIPAQLNFPGEFQHVTYGEGRYIGYRGLDATEREVAYPFGHGLSYTTFAYCDLDLLVRPVSDETAQDETVLTVSFTVSNTGDRAGATVPQVYLGFPDATVDRCVRELKAFLRVELDPGESRSITIDLTRRDLSYWDILLHSWTVEPGTVRVEVGISSRDLPLTGEVILDAPTVRHPLRRDSTVAEWMDADEEFAAKVRRATEQTGIDLDSDPTTAAFILAMPAYKMLQMAPIMTPEELDKMLGD
# B2: 803 (protein, listed as Penicillium italicum)
# chain: MVQEKDISTADAVLASLTLEEKVSLLAGGSFWSTAAIPGKSIPSVKFSDGPNGARGSEMKGGPTSACFPCAVSLAATWNLDAIKEVGKALAEETKTKGANLLLGPTVCPHRHPLGGRNFESFSEDPFLSGMMASEYIVGLQGQGIGAAIKHFAANEQETFRNILDVTVSMRALREIYLKPFEIAIKQAKPWALMTAYNSVNGSHADCNSTLLQQILREEWKWDGLVLSDWGGTNSLVESLTAGLDLEMPGPPTVRKSELIMQALESNAIPESIINDRARAVLRFVATTTGFGPQKECKEYADDRPSHRELIRQVGREGIVLLKNEDDILPLKHTASAGSLTKIALLGFADEALIHGGGSAAVNAHHRITLAEGLRDAFKDRGLEIECAKGAHTLRKLPLMVDHVKNDEGKPGWSMQFLHPKDPAGVWRHIGEPSYTPTAPGNEGMTVRATTQFCVPASGRHYLSLSGLGPSSLKINGDEVYRQDGNCPDLMAFILTSYADIPVQYDFVAGQTYHIEVLSNPLEAYNGPSFMNGRAGFSVGFMLEAERDADLLAEAVTLASRSDIAIILTGNTAEWEAEGQDQVGFHLPRDGSQDRLVSAVAAANKSTIVVNCTGGPIAMPWIHEVKALLQAWFPGQEAGHSIADILVGDRFPSGRLPVTFPRAIEDTPAYRNFPGGFEEDGRARVRYEEGVFVGYRFYDHTPEQREKVLFPFGYGLSYTSFTLHDISLATLKDHHENHIEVRVSVSNVGKRRGTETIQVYVGRADHSEQHPWKTLVAFAQVSLDAGETREMSLELSRRDLAFYDESTEHWVVEASDYLVHVGTSVFEIASTERLHIPERIDYAL
# B3: 890 (protein, listed as Arthrobacter ulcerisalmonis)
# chain: MNLPLSPAVTAPAAGSPDAEALIHNLADSLSLAEQVQLLTGADVWSTHTLPSIGLSRIVLSDGPAGVRGEDFDERHDSVSLPSSSALSASWSAELAHRYGQVLGQEARRKGVHAVLGPTINLHRSPLGGRHFECMSEDPRLTATMAAGYVAGVQSMGVGATPKHYLANESETDRFTVDSVVAERPLRELYLAAFEDAITESRAWLVMSSYNSINGTTASENDLLETPLSTEWGFDGVVVSDWTGVRSVEAANAHQDLEMPGPVGHWSAKLLAAVESGQVSREAIVEKVVRILRLAARVGSLDGVSPAVAELPAALDSAAVAREVAIRGAVLIRNSAGLLPLDASALTSVALSGHNADEARTQGGGSATVMPKQNISPLMGLREALPATTSLSYTRGAKVAEGLQQFARTALHNPVSNVPGARVTFLDASGTEIFAEDRLASSLIWFGVGIPEGTAAITISTDWTAEQAGVHHLGLGTVGQARLSFNGTEVFNGELLDTTNVLGAALFDPPSTVHQIETTAGETVRIEAHYTLPPEQFIPLTAILLGEEAVVTDPQAEIDDAVAAASSADVAIVVVGTNSSIESEGFDRSNLDLPGHQNELVRAVAAANPRTIVVVNSGSPVLMPWLEDVGAVLLGWFGGQEFGRAIADILLGVAEPGGRLPTSWPAALADVPVLSTTPVEGKLEYAEGIHVGYRAWLQQQAAGGPAPAVPFGFGLGYTSFEFSAPHAPQQVQAGNDVIVHVPVRNTGSRAGREVVQVYLERPDSTVERPVRWLAGFAGTHLAPAGTESVEVRIPARAFEHYDGGWQVERGAFRILVGKHVEDDFQVLAIDVR
# B4: 849 (protein, listed as Bifidobacterium merycicum)
# chain: MSDNTYPSVNDLTLEEEASLTSGGDAWHLQGVEAKGIPGYMITDGPHGLRKSLASNTGETDLNDSVPATCFPPAAGLSSSWNPELIRQVGEAMGEECIQEKVAVILGPGVNIKRNPLGGRCFEYWSEDPYLAGHEAVGIVAGVQSKGVGTSLKHFAANNQETDRLRVSANISQRALREIYFPAFEHIVKTAQPWTIMCSYNRINGVHSAQNRWLLTDVLRDEWGFEGIVMSDWGADHDRVASLNAGLNLEMPPTYTDDQIVYAARDGRIQPEQLDRMAQGMIDLVNKTRAAMSVEDYRFDVDAHNEIARRAAVESMVLLKNDDAILPVSRDAKIAVIGEFARTPRYQGGGSSHITPTKMTGFLDALAERGVPVDFAPGFTLDLEPTDPALEAEAVIAARDADVVLMFLGLPEAAESEGFDRDTLDIPAKQIELLKAVAAENKNVVVILSNGSVVSVAPWANNAKGILESWLLGQAGGAALADVIFGDVSPSGKLAQSVPMDINDDPSMINWPGEEGHVDYGEGVFVGYRYYDTYGKAVDYPFGYGLSYATFEIGGVKAVKTGANTARVSATVTNTSDVDAAETVQVYVAPGKADVARPKHELKAFRKVFLKAHESAEVSFDLDESAFAYWSEKFNDWHVEAGEYGIEVGMSSRDIAGVATVALDGDGKALPLTEWSTFGEWSADPVGSKVVADVREAGERGELPKLPDNDMMRMFLGSMPINSMSTLMGESGKAISSFMLDGYAKLVG
# B5: 894 (protein, listed as Microbacterium sp.)
# chain: MSDSVAQPSVTDLTLEEKASLTSGADFWTTTAIDRAGVPSIMMTDGPHGLRKQADGNDHVGLANSVPATCFPPAVGLSATFDPELAVRVGEALGVESAIENVAVILGPGINIKRSPLCGRNFEYMSEDPIVSGVMGGALVRGIQSRGVGASLKHFAANNQETDRLRVSSDVDPRPLREIYLRGFQIAIEGAQPWTVMCSYNRINGAYASEDPWLLTSVLRDEWGFEGLVVSDWGAVNDRVAGVIAGLDLEMPSSGGATDAQLVAAVRDGSLDEAALDVVARRVLDLVQKAGRRPAIDGHLDIDAHHALAREVAGRAIVLLKNDDRVLPLAAEQKVAVIGAFAETPRFQGAGSSLINPTRLDSALDGFAEYAAEGAVTYAAGFALDGSGDADVLRAEAVAAASASEVAVVFLGIPASAESEGFDREHIDLPADQLALLDAVLVANPRTVVVLSNGGVVALPFADRVPAIIEGWLLGQAGGSATADVLYGAVNPSGRLAETIPVRLEDNPSYGNFPGEHGHVRYGEGLFVGYRWYDERGLDVTFPFGHGLSYTTFAYGDAQASVRSDGDMAVRIAVTNTGERAGRELVQVYTALQGSAVQRAPRELKAFQSVALEAGETREVELIVRRDDLAYWDVRVDRWVVEGGEYEVHVGASSRDIRSVASAEVAGDELVLPASLNSSITELLAHPVLGERMRALVAAAFGPGAESEGALQVLGSFPIGRLAAFPNVPATRDEIERMIAQA
# B6: 841 (protein, listed as Mycetocola reblochoni)
# chain: MTTPRPSLEQKAALTSGRDTWHSESLDDIPVMMMTDGPHGLRQQLQDGGDALGIGNSVPATCFPPAAGLASSWNTGLVERVGVALGTEARATEIRILLGPGLNIKRSPLGGRNFEYFSEDPRVSGELAAAMVTGIQSMGVAATPKHFAVNNQETDRLRVSAEVDERALREIYLSAFERVVTVASPWAFMSSYNRINGVYASENHWLLTELLREEWGFDGLVMSDWGAVNDRVAALAAGLELEMPPTGTDQLIVDAVRTGELDEAVLDRAVDRLRLLAERTERPPLTGYDADAHDDLARSAAQESIVLLKNADVLPLDAAATPRIAVVGEFARTPRYQGGGSSRVVPTRMHSALDALTDALGLGADGLSFSPGFALDGDTPAGAADEAVAAVEAADVAVLFLGLPDGTESEGFDRTTIALPAEQLHLLERAAATTTPVVVVLSNGAVVDVASWEHHADAILEAWLLGQAGGLAIADVLLGTVSPSGKLAETIPLDLADTPSHLSFPGRDGVVVYGESVYVGYRHYDTRRLPVAYPFGFGLSYTRFEYSELEVTATGRNSWTVAATVTNVGERRGAETVQLYIGVEQDRPDRPVHELRGFAKVDLEPGESARVELPVTERDLSHWSVRDGAWRVEKGRYTVELAAHSRDVRLATTITSEGDGVVTRLNGMSTVGEWLDHPYGREQIQWFIDGVDTRFGATAPEMIVMLKQLPIAKLTTFGIGLDSARIERMCAEAAADGERHGEQP
# Columns and labels:
# Assay type in all cases: biochemical, Quillaja saponaria
# [1] = Experiment 5-3: screening of additional glucosidases for deglycosylation with QS-18 in treated bark extract (80%) at pH 6 and 35 deg C; conditions: TBE 80% (QS-21 approx. 4 g/L), pH 6, 35 deg C; UV HPLC
# Method: Experiment 5-1 was repeated, replacing CBE with Treated Bark Extract (TBE) at pH 6. TBE was prepared from CBE by PVPP treatment and concentration, to provide TBE with a QS-21 concentration of approximately 4 g/L. TBE was adjusted to pH 6 by dropwise addition of 2M NaOH with stirring.
# [2] = Experiment 5-1: screening of additional glucosidases for deglycosylation with purified QS-18 (0.04 mg/ml) at pH 7.5 and 30 deg C; conditions: pH 7.5, 30 degrees C, 18 hours, LCMS/MS
# Method: The 94 additional genes, together with positive control (DNA encoding SEQ ID No. 262) and negative control, were transformed, expressed, lysed and reacted in the same manner as described above for Experiment 4-1, except the reaction was incubated at 30 degrees C. for 18 hours.
# Samples were analysed by LCMS/MS according to the procedure in Experiment 4-1.
# [3] = Experiment 5-2: screening of additional glucosidases for deglycosylation with QS-18 in crude bark extract (80%) at pH 6 and 35 deg C; conditions: CBE 80%, pH 6, 35 deg C, 18 hours; UV HPLC
# Method in brief: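 Deglycosylation of QS-18 was monitored by UV HPLC after MeCN/AcOH quench with hexanophenone. The reaction ran 18 hours at 35 deg C, shaking, combining clarified pH 6 lysate with crude bark extract neutralised to pH 6 by NaOH.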
Molecule,Experiment 5-3 % conv [1] [%],Experiment 5-1 % conv [2] [%],Experiment 5-2 % conv [3] [%]
B1,<0.5,22.7,<0.5
B2,<0.5,13.1,<0.5
B3,<0.5,12.6,<0.5
B4,<0.5,17.8,<0.5
B5,<0.5,21.3,<0.5
B6,<0.5,12.3,<0.5
